Results: patent US20050032694A1

Target: rat agrin (the transmembrane isoform Y4, Z8) (rat) (UniProt P25304)
Assay: cell-based or functional assay

Chain of UniProt P25304 (P25304 whole entry, canonical isoform): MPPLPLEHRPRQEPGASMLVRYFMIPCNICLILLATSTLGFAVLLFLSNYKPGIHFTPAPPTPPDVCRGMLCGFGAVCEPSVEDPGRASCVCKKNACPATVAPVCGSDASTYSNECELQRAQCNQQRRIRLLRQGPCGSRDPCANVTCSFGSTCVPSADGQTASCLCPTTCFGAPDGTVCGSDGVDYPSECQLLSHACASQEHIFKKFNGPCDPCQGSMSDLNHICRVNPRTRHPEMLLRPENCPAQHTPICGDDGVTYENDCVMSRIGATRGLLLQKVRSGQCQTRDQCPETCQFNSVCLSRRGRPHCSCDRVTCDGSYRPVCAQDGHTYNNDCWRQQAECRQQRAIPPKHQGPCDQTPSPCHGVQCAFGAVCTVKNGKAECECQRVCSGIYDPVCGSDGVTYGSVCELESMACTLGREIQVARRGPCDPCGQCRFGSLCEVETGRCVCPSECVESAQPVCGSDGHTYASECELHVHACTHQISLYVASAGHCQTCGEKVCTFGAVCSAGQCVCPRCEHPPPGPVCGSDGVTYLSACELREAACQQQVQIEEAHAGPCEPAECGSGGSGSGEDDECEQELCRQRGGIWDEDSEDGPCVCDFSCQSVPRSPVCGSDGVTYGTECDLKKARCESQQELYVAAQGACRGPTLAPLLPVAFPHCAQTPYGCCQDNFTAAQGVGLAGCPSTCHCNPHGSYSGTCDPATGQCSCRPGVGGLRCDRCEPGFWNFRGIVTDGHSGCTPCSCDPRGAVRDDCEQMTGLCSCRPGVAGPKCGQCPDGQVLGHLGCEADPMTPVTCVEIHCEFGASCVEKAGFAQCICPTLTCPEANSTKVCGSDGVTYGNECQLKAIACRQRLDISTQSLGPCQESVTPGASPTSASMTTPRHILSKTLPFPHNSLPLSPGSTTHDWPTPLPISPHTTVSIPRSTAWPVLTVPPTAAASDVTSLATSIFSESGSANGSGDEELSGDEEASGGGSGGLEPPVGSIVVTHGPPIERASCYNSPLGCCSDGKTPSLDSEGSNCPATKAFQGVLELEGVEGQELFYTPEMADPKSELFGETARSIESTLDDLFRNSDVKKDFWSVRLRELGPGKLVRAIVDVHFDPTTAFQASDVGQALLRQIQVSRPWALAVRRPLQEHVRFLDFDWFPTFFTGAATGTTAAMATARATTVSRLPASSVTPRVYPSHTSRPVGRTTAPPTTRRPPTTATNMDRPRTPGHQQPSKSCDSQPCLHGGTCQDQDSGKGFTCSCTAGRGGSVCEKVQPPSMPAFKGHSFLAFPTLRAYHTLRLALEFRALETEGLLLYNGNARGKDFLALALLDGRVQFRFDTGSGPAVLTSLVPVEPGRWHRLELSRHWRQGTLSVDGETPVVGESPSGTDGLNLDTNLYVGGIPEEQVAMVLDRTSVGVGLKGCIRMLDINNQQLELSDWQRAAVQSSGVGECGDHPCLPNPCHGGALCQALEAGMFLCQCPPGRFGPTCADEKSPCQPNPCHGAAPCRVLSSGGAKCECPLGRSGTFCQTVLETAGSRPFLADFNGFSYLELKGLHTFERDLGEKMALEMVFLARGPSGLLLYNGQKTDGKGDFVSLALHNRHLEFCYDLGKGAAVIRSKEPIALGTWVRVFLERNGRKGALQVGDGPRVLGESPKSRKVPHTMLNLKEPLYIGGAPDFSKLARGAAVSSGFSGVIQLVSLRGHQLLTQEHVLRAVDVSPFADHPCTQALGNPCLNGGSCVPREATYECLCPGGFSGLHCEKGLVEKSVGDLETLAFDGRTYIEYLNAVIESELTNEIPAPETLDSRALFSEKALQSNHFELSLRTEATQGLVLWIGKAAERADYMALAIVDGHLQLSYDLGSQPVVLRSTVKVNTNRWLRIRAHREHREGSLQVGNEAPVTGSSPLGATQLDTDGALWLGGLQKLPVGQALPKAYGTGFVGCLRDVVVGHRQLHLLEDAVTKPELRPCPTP

soluble agrin fragment in culture medium of co-transfected HEK293T cells (Western blot): 100 kDa
Substance: neurotrypsin of the mouse (compound of the formula II) (from UniProt O08762 22-761) (enzyme)
